Molecular target: GST fused to the OCA2 N-terminal cytoplasmic domain, AA23 variant harboring the P99S mutation (human) (UniProt Q04671)
Test: pull-down

Chain of UniProt Q04671 (Q04671 1-173 P99S): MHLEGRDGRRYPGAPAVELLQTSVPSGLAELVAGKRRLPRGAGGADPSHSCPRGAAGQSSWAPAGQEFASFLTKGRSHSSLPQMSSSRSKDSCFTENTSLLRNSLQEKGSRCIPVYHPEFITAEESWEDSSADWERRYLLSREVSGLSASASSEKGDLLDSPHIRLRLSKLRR

percent bound relative to AA23 (% relative to AA23): 30.1
Substance: AP-3 complex from MNT-1 human melanoma cell lysate (from UniProt O14617 1-1153; O00203 1-1094; Q92572 1-193)

Reference: publication PMC3418312
